Reference: publication PMC3725505
One block for each substance: values may come before it.

Experiments:
[1] = target: Kelch domain of human Keap1 (residues 321-609) (human) (UniProt Q14145); assay: ITC
[2] = target: Keap1 (Kelch domain) Kelch domain, 321-609 (UniProt Q14145); assay: isothermal titration calorimetry; conditions: reference: unphosphorylated WTX 20-mer peptide; sites S286

Chain of Kelch domain of human Keap1 (residues 321-609) (human) (Q14145 321-609): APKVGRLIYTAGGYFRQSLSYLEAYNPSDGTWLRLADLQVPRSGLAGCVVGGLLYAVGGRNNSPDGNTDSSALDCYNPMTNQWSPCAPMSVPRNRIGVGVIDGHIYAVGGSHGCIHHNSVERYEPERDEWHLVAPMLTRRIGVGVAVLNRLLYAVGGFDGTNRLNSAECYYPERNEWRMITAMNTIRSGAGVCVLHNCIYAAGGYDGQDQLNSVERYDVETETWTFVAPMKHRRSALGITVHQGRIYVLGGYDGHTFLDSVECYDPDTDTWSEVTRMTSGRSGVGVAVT

Substance: PGAM5 peptide (20-mer)
- Kd [1]: 230 nM
- dH [1]: -19.1 kcal/mol
- stoichiometry N [1]: 1.07

Substance: WTX peptide (20-mer, unphosphorylated)
- Kd [1]: 250 nM
- dH [1]: -18 kcal/mol
- stoichiometry N [1]: 1.04

Substance: FAC1 peptide (20-mer)
- Kd [1]: 1100 nM
- dH [1]: -15.1 kcal/mol

More lines, now with the values ahead:

- KD [2]: weaker; reference 0.25 ± 0.02
Substance: WTX Kelch-binding region (from UniProt Q5JTC6) WTX pS286 20-mer peptide

- dH [1]: -19.3 kcal/mol
- stoichiometry N [1]: 1.01
Substance: PALB2 peptide (20-mer)
